Results taken from patent publication EP0256654B1.

Columns and labels:
[1] = target: partially purified 17-1A antigen (isolated from SW116 cells) (human) (UniProt P16422); test: competition with 125I murine 17-1A on plates coated with partially purified 17-1A antigen; 50% binding value
[2] = target: partially purified 17-1A antigen (isolated from SW116 cells) (human) (UniProt P16422); test: cold murine 17-1A competing with 125I murine 17-1A on plates coated with partially purified 17-1A antigen; 50% binding value

| Substance | IC50 [1] [µg/mL] | IC50 [2] [µg/mL] |
| --- | --- | --- |
| G1K 17-1A Chimeric IgG (from UniProt P01857 1-330) (antibody) | 0.3 | – |
| murine monoclonal antibody 17-1A | – | 0.16 |
